Assay: soluble on expression in E. coli; label from the status in PepcDB or PDB records

| Sequence | soluble on expression in E. coli |
| --- | --- |
| ADKAASGVLTKLPQKQIQEMKEAFSMIDVDRDGFVSKEDIKAISEQLGRAPDDKELTAMLKEAPGPLNFTMFLSIFSDKLSGTDSEETIRNAFAMFDEQETKKLNIEYIKDLLENMGDNFNKDEMRMTFKEAPVEGGKFDYVKFTAMIKGSGEEEA | soluble |
| ADQLLRKKRRIFIHSVGAGTINALLDCLLEDEVISQEDMNKVRDENDTVMDKARVLIDLVTGKGPKSCCKFIKHLCEEDPQLASKMGLH | soluble |
| AEAAKPATAADSKAAFKNDDQKSAYALGASLGRYMENSLKEQEKLGIKLDKDQLIAGVQDAFADKSKLSDQEIEQTLQAFEARVKSSAQAKMEKDAADNEAKGKEYREKFAKEKGVKTSSTGLVYQVVEAGKGEAPKDSDTVVVNYKGTLIDGKEFDNSYTRGEPLSFRLDGVIPGWTEGLKNIKKGGKIKLVIPPELAYGKAGVPGIPPNSTLVFDVELLDVKPAPKADAKPEADAKAADSAKK | soluble |
| AFINAHTHFEFSNNKASFDYGSFSGWLGSVLNNGGAILENCQGAIQNAISTQLKSGVGSVGAISNHLIEVNLLKESPLNAVVFLEFLGSSYSLEKLKAFEAKFKELKDLEDKKLKAALAVHAPYSVQKDMALSVIQLAKDSQSLLSTHFLESLEELEWVENSKGWFENFYQHFLKESHFKSLYKGANDYIDMFKDTHTLFVHNQFASLEALKRIKSQVKNAFLITCPFSNRLLSGQALDLERTKEAGLSVSVATDGLSSNISLSLLDELRAFLLTHNMPLLELAKIALLGATRHGAKALALNNG | not soluble |
| AHHHHHHASAKWVCKICGYIYDEDAGDPDNGISPGTKFEELPDDWVCPICGAPKSEFEKLEDGSRFIDSNVFLYAMIKPKGNTSKEILKKKEKAKKILLRVENGEDVVTTLIHLSEIANILEAKVNLTTAVRFLENLLLAENVKILPVSVEEYLKAVLISKEKGISVNDALAYLKMKELNIKEIYTFDRHFQNLDVEVIQD | soluble |
| AHHHHHHGSGASPVIVPVRCFTCGKVIGDKYYEFKRRVEAGEDPEKVLDDLGLERYCCRRMLLSHVELIDDIMHYRVY | not soluble |
| AHHHHHHGSGWWYTTNLRSRSNDMDKPEEILNEKDIIKRAYKFGFYVGLHGHTDWFGWVAEVKKKIYEEAKHLGVYEEVKKAYIKGKKAGRVEREKRIHLGLMKQTTSEIPEKIKIVSIERNRGSIASLNFPKIEDMPKTIKKPRFFRLPKILRGGEE | not soluble |
| AHHHHHHGSKILWAPWRIEYIRAPKHEGCIFCDFPRENRDRERLILYRGKHAFIIMNNYPYNPGHVMVAPYRHVASVEDLTDEEMLEIMKLAALIMKAIRKVMKPDGFNLGFNIGKVAGAGVDGHVHLHIVPRWNGDTNFMPVIADTKVIPESLEQAYEELKKALEEIENAE | soluble |
| AHHHHHHGSMLKEVHELLNRIWGDIFELREELKEELKGFTVEEVSEVFNAYLYIDGKWEEMKYPHPAFAVKPGGEVGATPQGFYFVFAFPKEELSKEFIEDVIRAFEKLFIYGAENFLEDFYNFEHPISGDEVWDRIVNSDEEMINFEVDLGFDKEEVKREIKRFIELARRYNLL | soluble |
| AHHHHHHGSNFQQEILIIKSEIYPIVSKHYPKNTRREVISLYDLITFAILAHLHFNGVYKHAYRVLIEEMKLFPKIRYNKLTERLNRHEKLLLLAQEELFKKHAREYVRILDSKPIQTKELARKNRKDKEGSSEIISEKPAVGFVPSKKSFTMGTS | not soluble |
| AHHHHHHGSPTWEELYKNAIEKAIKSVPKVKGVLLGYNTNIDAIKYLDSKDLEERIIKAGKEEVIKYSEELPDKINTVSQLLGSILWSIRRGKAAELFVESCPVRFYMKRWGWNELRMGGQAGIMANLLGGVYGVPVIVHVPQLSRLQANLFLDGPIYVPTLENGEVKLIHPKEFSGDEENCIHYIYEFPRGFRVFEFEAPRENRFIGSADDYNTTLFIREEFRESFSEVIKNVQLAILSGLQALTKENYKEPFEIVKSNLEVLNEREIPVHLEFAFTPDEKVREEILNVLGMFYSVGLNEVELASIMEILGEKKLAKELLAHDPVDPIAVTEAMLKLAKKTGVKRIHFHTYGYYLALTEYKGEHVRDALLFAALAAAAKAMKGNITSLEEIREATSVPVNEKATQVEEKLRAEYGIKEGIGEVEGYQIAFIPTKIVAKPKSTVGIGDTISSSAFIGEFSFTL | not soluble |
| AHHHHHHGSQRALVTLTPSESKRLIAKAVVAMDEVQKALKNGFIYIATGTTAAYIAEELLGEKIEKEKWTVGTISKGRTCVTPKTTWPKHLVLYKGKLFEGEPLEALKEMGPEDVFIKGGNAIDINWNVAVFAAAPDGGTIGKTFGWTITKGVFTITPISLEKFVPTPVKESAKLTGIYSFNWGTGLYAALVPIPHAHPVTEVEAYRILAGVEAIPIAAGGAGGAEGSVTLVLEGDDENMEKAKEITKAVKGEPPLEPYTEDCSICPFAKICGLGSGSF | not soluble |
| AHHHHHHGSRVVKKIGLIGGMTPESTCYYYRKYIEISRKKFRKYEYPELLIYSINFRDFFMNPEGWEGRKRILINAAKALERAGAELIALTANTPHIVFDDIQKEISVPMVSIIDAVAEEILSHGLKKVLLLETKTTMSSGFYVNALKNKGLEVVVPNEEEQEELNRIIFEELAFENLKSKRWIIDLIERYAKEEGVEGVILGCTELPLAVKRGDVSIEVFDSAEIHIKKLIEVASQSI | not soluble |
| AHHHHHHGSVKHYSVKVITAKSRTRLGLQLADARINELFNMIQDKTLRRDPLLISRRLVPSWATLNSFMLYFGLILAKEEVSISCTLESAT | not soluble |
| AHHHHHHGSYVIIMGAGRIGTLVAKMLENSGHDVAIIEMNKDRARAVSDIVSGLVIEGDATDQNILESANVRNADAFVALTGKDDANILACILAKHLNPRIMTILRITDPRKKKIFEEVKDLKKYFDVVVSPEDIAANYIFRVVITPGFDRVLLPREGAEIIQFHIDENSKVAGKAVKDLNLPRDSLIIAIYDEKGNLIIPSGETILPKRGTVVVFAKDSALKEIKKIMEEKVEESEE | soluble |
| AHHHHHHMVHITLDRNTANSWLIISKDRRQVRMGDTHQNVSDNKERFSNYPMVLGAQRFSSGKMYWEVDVTQKEAWDLGVCRDSVQRKGQFSLSPENGFWTIWLWQDSYEAGTSPQTTLHIQVPPCQIGIFVDYEAGVVSFYNITDHGSLIYTFSECVFAGPLRPFFNVGFNYSGGNAAPLKLCPLKM | soluble |
| AHKKIFLVEDNKADIRLIQEALANSTVPHEVVTVRDGMEAMAYLRQEGEYANASRPDLILLDLNLPKKDGREVLAEIKSDPTLKRIPVVVLSTSINEDDIFHSYDLHVNCYITKSANLSQLFQIVKGIEEFWLSTATLPS | soluble |
| AIAASLSDQSGSIGSEQTRPSGAIPVESLPPQALEQLIASLQQEVEQLADALQQLNFANQRWTLCKQSIEAFAEETTRVDLPGAQSRATDAISSTASAKPETSVEVNQNQRLLVPLSRSLYVLGRVINPERCLIDIGTGYHVERKLADAAEFFDRRLKHVRGSMRQLTLKIDQNQQQMQTIREILVRKLAGAQQAAEHT | soluble |
| AIADPAEVEFLAEKEMVKIIPNFSLDKIYLIGGDLGPFNPGLPVEVPVWLALNLKQRQKCRIVPPEWMDTDKLEDIREQERKLDTFTPIPNPYYMELTKLLLNHAADNIPKADEIRTLVKDIWDTRMAKLRLSADSFISQQEAHAQLDNLTLMEINTTRSFLLDSLNYMYKLRSNLQPGRSKDY | soluble |
| AIAETGGGAPLTKSSEAVEGDFVEDRLRGNEAFRRGNYEAAASYYSEALEKIRLAKTELPTQDRYPWSLEEVLIRCNRALVFLRLASAAALPNVGSNRFEEDACTAEHESEEATPCSLWQRAAEDASVALDLITDFEDEGESERVTELRVKALYRRMVANKGQNNFADAAKDAEALAKIRPEYRSEAELLAQRAAAESERAKQEALQKLKEVGNSFLSLFGVSIDNFQTKRNPDGTYSVSYCPKS | soluble |
| AIAFRHTLSVDPSEQLSQDFADPVTDSGYESDEEAAAAATASLSGEEAALWNLVDPQQRLIFVLDGPAAQTLRVKRTGNLERQVVNIHRLPLERAPTVATSLLAATRPQHLVVALRTIEPHQAAAILTSTSYPSLSNVENASQVLVLANDLVQIDDPLLRPLWSDEGTQQNRIQLRWVETGCIGGITAALLAAGCWLRIPVLALLAVEDDDGPSPATLEALLLAAERFGCFTRADWEIRMPNLRQLLAKRQLLYI | soluble |
| AIAITGETEPACVEDASQLAEQRNGAPVMEAGCAAVPVEANATKRGYWRQRTLHSWFIGRKPQRTCIAVDIDEVLAFFVPELCAFHNKRYGTRLQATDFHSYRFAEVWGGTDTDAIRKVHEFFRTPAFQELQPIPGAKQVLQSRLARFRFVVVTSRQLVIEQETRAWLDKHFSGIFEAIYLGNQWALHPNGEHGTGVGSAAQEPQRLFANRRRKSQVCKACGAAVLIDDLPHNLLDCSENGVFGVLFDFQGQYGWSKSPAFESKDIAVVHSWEAVGELLDRL | soluble |
| AIAKLPISTISPIHYMKSVVSSRETRNESNKSRRTFASTEWNKIIRETLYLETVYIPVDATSHSPDIIFKLQSPVEPKVLTVGVACKGRWKSEGIGWSDIIDEAKKFLDPVYDQVLSSAMDYHHCMLIIVSTKLSLNVSNELGNQSRCYSSGMFIGGDSFKVPDNCELVILCERDVQMLIDKEILNGLERAFCVSHNPTFWDFGLDLLDRIRNSFLSWQ | soluble |
| AIAKNFNDEEHNSQLTDEVLPEPEDARVIANILKAVGVESFDTRVVAQLVEFVYKYIGEVLELSKTFAQYAEREDIRQDDVKLAISSLLSKSFTQPPSRDVLLQLCRERNAVPLPVVDTYVGIQLPPKEFQLTTRNYQLKRKTTTESVASQELSEATGNISIGESSLQPNEEESNTMNT | soluble |
| AIALVEDSGHHLPESADIENALDLLLKAQLERAFGPELAEHFWAARQPRTLDERLAFIRKCWIGVFKDSPLSTFGLERLEQLERLCRSKRRGRELSAAEHHQFAEELARLWEQVQRLLPRAAPETSYASSASAGGVHSGDAHTPATLSDAESAHAAPEAMRIEAPATSARSASGCMARVSSDVAAAATNVSLVVLDGENIAWAHGQNAVFSPKGIAIAVDFFRKRGYRCVVFLPDYRRKRADLPTVSASDALVFVPAGEYDDTFALGYAVGHDAILVTNDLLQDHLDQFYPDEGEAREALRKWLGSHRCSFTFVGDEFLPNPHFFLP | soluble |
| AIALVSHGAIVKSAPKHWNGSKCPIRMQVRVPDPDRRSLLRAGAHIILGGLLATVIPGTSPSIAKIREKPTDKGEEAPKIDDEKELDKYVSGLKYEEELYENPDPAEKEVYRTPRVEREPEYKKKEDEILEKESKVLKEEAREAARESEVLRQEFEKR | soluble |
| AIALWKLVENVKYEDIYEDRHDGVPSHSSRLSQLGSVSQGPYSSAPPLSHTPSSDFQPPYFPPPYQPLPYHQSQDPYSHVSDPYSLNALHQPQQHPWGSRQRQDLQGTESGGLLPQPRASLPQLSGLDPRRDYSTVRRPDVLLHSTHHGLEAGMGDGLSLHGLAHGMDDVQAVEDLNGAMNILDRTPLGNSRPSPILEPGIQSCLSHFSFITHGFGSPAICAALTALQNYLTEALKGLDKMFLNNPTPNRHTPADGSKGGEKEEKHRK | soluble |
| AIAQRFLDSISAATQAKSPAEHETLVAMADLYAIITCVEYLERAWRANAVSDEDYTRNCSRLIAQFRATRQLVMDDVPSVISFLEEYHLAARAAMNRLQVGVPATVEHANSSDETRRRNFTAAAIQATEAFLTFRDALELGERSVDRLLPYLREILLVLGRMGAVFGTADGDATVQRERIVQWVRRLDAMHAYEQITEEDKRQLAHDVDTLYDTFRRRVGELEM | soluble |

— the DeepSol protein solubility set
